Test results reported in publication PMC2705212 (Journal of molecular biology, 2008).
Blank lines part the entries; values can stand above or below the molecule they belong to.

B1: BMPRII-Fc chimera (soluble extracellular domain of BMP receptor II) (Fc fusion, human, UniProt Q13873 27-150, looked up)
chain: SQNQERLCAFKDPYQQDLGIGESRISHENGTILCSKGSTCYGLWEKSKGDINLVKQGCWSHIGDPQECHYEECVVTTTPPSIQNGTYRFCCCSTDLCNVNFTENFPPPDTTPLSPPHSFNRDET
B2: BMP-7 growth factor dimer (ligand, human, UniProt P18075 293-431, looked up)
chain: STGSKQRSQNRSKTPKNQEALRMANVAENSSSDQRQACKKHELYVSFRDLGWQDWIIAPEGYAAYYCEGECAFPLNSYMNATNHAIVQTLVHFINPETVPKPCCAPTQLNAISVLYFDDSSNVILKKYRNMVVRACGCH

Experiments:
[1] = target: BMP-7 prodomain-growth factor complex (UniProt P18075); test: SPR
[2] = target: ActRIIA-Fc chimera (soluble extracellular domain of activin receptor IIA) (human) (UniProt P27037); test: SPR
ActRIIA-Fc chimera (soluble extracellular domain of activin receptor IIA) (human), sequence (P27037 20-135, change not shown): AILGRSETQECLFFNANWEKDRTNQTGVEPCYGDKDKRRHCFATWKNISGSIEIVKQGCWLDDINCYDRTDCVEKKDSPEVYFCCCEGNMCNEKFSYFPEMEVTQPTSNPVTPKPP

[3] = target: BMPRII-Fc chimera (soluble extracellular domain of BMP receptor II) (human) (UniProt Q13873); test: SPR
[4] = target: BMP-7 prodomain; test: SPR
[5] = target: B2; test: SPR
[6] = target: B1; test: AUC

Molecule: B1
reduction of the response against immobilized BMP-7 gfd [1]: 90%
koff [5]: 0.00298 s⁻¹
kon [5]: 625000 M⁻¹ s⁻¹

Molecule: B2
stoichiometry N [6]: 2 gfd per BMPRII-Fc dimer

Further lines, results first:

reduction of the response against immobilized BMP-7 gfd [1]: 90%
Molecule: ActRIIA-Fc chimera (soluble extracellular domain of activin receptor IIA) (from UniProt P27037 20-135) (Fc fusion)

koff [2]: 0.00352 s⁻¹
kon [2]: 265000 M⁻¹ s⁻¹
koff [3]: 0.00213 s⁻¹
kon [3]: 216000 M⁻¹ s⁻¹
Molecule: BMP-7 prodomain-growth factor complex (from UniProt P18075 293-431)

koff [4]: 0.00209 s⁻¹
kon [4]: 98700 M⁻¹ s⁻¹
Molecule: BMP-7 growth factor dimer (from UniProt P18075 293-431) (ligand)
